{
  "source": "paper PMC9482650",
  "about": "“Quantitative fragmentomics allow affinity mapping of interactomes” (Nature Communications, 2022)",
  "binders": {"B1": {"name": "POLR1D, P0DPB6 (peptide)", "chain": "QKASRNESTF"}},
  "data": [
    {"biological_target": "DLG2_2, Q15700", "sequence (Q15700 189-283)": "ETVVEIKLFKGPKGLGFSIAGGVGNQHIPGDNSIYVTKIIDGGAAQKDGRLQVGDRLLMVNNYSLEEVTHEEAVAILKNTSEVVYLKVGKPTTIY", "assay": "holdup assay", "design": "key: below the threshold = too weak to quantify, mostly under pKd 3.1 to 4", "settings": "plain residues with an end cap or a label only (N-terminal biotin on a linker: ado-ado)", "values": [
      {"binder": "B1", "pKd": "below the threshold"}
    ]},
    {"biological_target": "GORASP2, Q9H8Y8", "assay": "holdup assay", "design": "key: below the threshold = too weak to quantify, mostly under pKd 3.1 to 4", "settings": "plain residues with an end cap or a label only (N-terminal biotin on a linker: ado-ado)", "values": [
      {"binder": "B1", "pKd": "below the threshold"}
    ]},
    {"biological_target": "TJP1_3, Q07157", "sequence (Q07157 416-512)": "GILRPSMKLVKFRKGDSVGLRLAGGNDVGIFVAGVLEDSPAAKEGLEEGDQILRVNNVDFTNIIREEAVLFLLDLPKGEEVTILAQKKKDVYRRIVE", "assay": "holdup assay", "design": "key: below the threshold = too weak to quantify, mostly under pKd 3.1 to 4", "settings": "plain residues with an end cap or a label only (N-terminal biotin on a linker: ado-ado)", "values": [
      {"binder": "B1", "pKd": "below the threshold"}
    ]},
    {"biological_target": "T1, HTRA3, P83110", "T1 sequence (P83110 354-453, limits assumed, looked up)": "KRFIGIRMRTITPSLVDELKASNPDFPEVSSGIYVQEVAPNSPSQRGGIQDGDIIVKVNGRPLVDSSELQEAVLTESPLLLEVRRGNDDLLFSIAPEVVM", "assay": "holdup assay", "design": "key: below the threshold = too weak to quantify, mostly under pKd 3.1 to 4", "settings": "plain residues with an end cap or a label only (N-terminal biotin on a linker: ado-ado)", "values": [
      {"binder": "B1", "pKd": "below the threshold"}
    ]},
    {"biological_target": "Inadl_9, Q8NI35", "sequence (Q8NI35 1530-1615)": "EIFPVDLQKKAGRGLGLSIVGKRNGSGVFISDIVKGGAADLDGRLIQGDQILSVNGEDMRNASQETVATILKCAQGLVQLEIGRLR", "assay": "holdup assay", "design": "key: below the threshold = too weak to quantify, mostly under pKd 3.1 to 4", "settings": "plain residues with an end cap or a label only (N-terminal biotin on a linker: ado-ado)", "values": [
      {"binder": "B1", "pKd": "below the threshold"}
    ]},
    {"biological_target": "LAP2, Q96RT1", "sequence (Q96RT1 other isoform, or with tags, fused parts or gaps)": "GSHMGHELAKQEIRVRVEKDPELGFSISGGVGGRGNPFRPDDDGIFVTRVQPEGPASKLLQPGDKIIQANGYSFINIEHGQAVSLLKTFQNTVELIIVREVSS", "assay": "holdup assay", "design": "key: below the threshold = too weak to quantify, mostly under pKd 3.1 to 4", "settings": "plain residues with an end cap or a label only (N-terminal biotin on a linker: ado-ado)", "values": [
      {"binder": "B1", "pKd": "below the threshold"}
    ]},
    {"biological_target": "T2, DFNB31_2, Q9P202", "T2 sequence (Q9P202 274-371, limits assumed, looked up)": "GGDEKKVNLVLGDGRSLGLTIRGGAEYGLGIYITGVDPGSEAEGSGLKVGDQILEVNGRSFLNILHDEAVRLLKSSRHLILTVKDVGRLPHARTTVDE", "assay": "holdup assay", "design": "key: below the threshold = too weak to quantify, mostly under pKd 3.1 to 4", "settings": "plain residues with an end cap or a label only (N-terminal biotin on a linker: ado-ado)", "values": [
      {"binder": "B1", "pKd": "below the threshold"}
    ]},
    {"biological_target": "T3, PARD3B_1, Q8TEW8", "T3 sequence (Q8TEW8 196-299, limits assumed, looked up)": "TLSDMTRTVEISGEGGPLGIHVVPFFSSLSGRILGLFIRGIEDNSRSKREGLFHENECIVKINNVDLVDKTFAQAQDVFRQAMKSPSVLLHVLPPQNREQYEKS", "assay": "holdup assay", "design": "key: below the threshold = too weak to quantify, mostly under pKd 3.1 to 4", "settings": "plain residues with an end cap or a label only (N-terminal biotin on a linker: ado-ado)", "values": [
      {"binder": "B1", "pKd": 4.05}
    ]},
    {"biological_target": "T4, GRIP1_4, Q9Y3R0", "T4 sequence (Q9Y3R0 467-571, limits assumed, looked up)": "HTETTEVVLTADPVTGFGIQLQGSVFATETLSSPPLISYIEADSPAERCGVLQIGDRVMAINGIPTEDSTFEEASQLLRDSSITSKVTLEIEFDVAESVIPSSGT", "assay": "holdup assay", "design": "key: below the threshold = too weak to quantify, mostly under pKd 3.1 to 4", "settings": "plain residues with an end cap or a label only (N-terminal biotin on a linker: ado-ado)", "values": [
      {"binder": "B1", "pKd": "below the threshold"}
    ]},
    {"biological_target": "T5, DLG3_3, Q92796", "T5 sequence (Q92796 374-475, limits assumed, looked up)": "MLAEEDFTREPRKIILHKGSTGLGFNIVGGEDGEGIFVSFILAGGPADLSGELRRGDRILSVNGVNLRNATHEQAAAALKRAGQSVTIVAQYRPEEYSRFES", "assay": "holdup assay", "design": "key: below the threshold = too weak to quantify, mostly under pKd 3.1 to 4", "settings": "plain residues with an end cap or a label only (N-terminal biotin on a linker: ado-ado)", "values": [
      {"binder": "B1", "pKd": 3.6}
    ]},
    {"biological_target": "Inadl_10, Q8NI35", "sequence (Q8NI35 1673-1763)": "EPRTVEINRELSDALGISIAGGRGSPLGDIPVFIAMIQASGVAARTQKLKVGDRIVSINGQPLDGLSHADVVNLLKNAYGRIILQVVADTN", "assay": "holdup assay", "design": "key: below the threshold = too weak to quantify, mostly under pKd 3.1 to 4", "settings": "plain residues with an end cap or a label only (N-terminal biotin on a linker: ado-ado)", "values": [
      {"binder": "B1", "pKd": "below the threshold"}
    ]},
    {"biological_target": "NHERF4_4, Q86UT5", "sequence (Q86UT5 464-550)": "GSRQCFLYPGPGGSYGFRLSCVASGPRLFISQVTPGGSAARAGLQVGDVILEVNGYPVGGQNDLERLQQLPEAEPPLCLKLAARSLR", "assay": "holdup assay", "design": "key: below the threshold = too weak to quantify, mostly under pKd 3.1 to 4", "settings": "plain residues with an end cap or a label only (N-terminal biotin on a linker: ado-ado)", "values": [
      {"binder": "B1", "pKd": 3.81}
    ]},
    {"biological_target": "TJP2_1, Q9UDY2", "sequence (Q9UDY2 24-128)": "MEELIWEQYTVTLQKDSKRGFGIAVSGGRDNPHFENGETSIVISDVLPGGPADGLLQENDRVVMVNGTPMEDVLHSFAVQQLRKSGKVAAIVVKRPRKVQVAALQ", "assay": "holdup assay", "design": "key: below the threshold = too weak to quantify, mostly under pKd 3.1 to 4", "settings": "plain residues with an end cap or a label only (N-terminal biotin on a linker: ado-ado)", "values": [
      {"binder": "B1", "pKd": "below the threshold"}
    ]},
    {"biological_target": "T6, RHPN1, Q8TCX5", "T6 sequence (Q8TCX5 508-602, limits assumed, looked up)": "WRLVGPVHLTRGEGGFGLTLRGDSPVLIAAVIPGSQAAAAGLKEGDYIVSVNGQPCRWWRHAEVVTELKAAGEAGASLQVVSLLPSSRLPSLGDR", "assay": "holdup assay", "design": "key: below the threshold = too weak to quantify, mostly under pKd 3.1 to 4", "settings": "plain residues with an end cap or a label only (N-terminal biotin on a linker: ado-ado)", "values": [
      {"binder": "B1", "pKd": "below the threshold"}
    ]},
    {"biological_target": "T7, LIN7B, Q9HAP6", "T7 sequence (Q9HAP6 88-185, limits assumed, looked up)": "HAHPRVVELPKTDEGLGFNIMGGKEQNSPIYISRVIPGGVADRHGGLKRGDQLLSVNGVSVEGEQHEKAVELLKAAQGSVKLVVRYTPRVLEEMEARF", "assay": "holdup assay", "design": "key: below the threshold = too weak to quantify, mostly under pKd 3.1 to 4", "settings": "plain residues with an end cap or a label only (N-terminal biotin on a linker: ado-ado)", "values": [
      {"binder": "B1", "pKd": 3.96}
    ]},
    {"biological_target": "IL16_1, Q14005", "sequence (Q14005 210-306)": "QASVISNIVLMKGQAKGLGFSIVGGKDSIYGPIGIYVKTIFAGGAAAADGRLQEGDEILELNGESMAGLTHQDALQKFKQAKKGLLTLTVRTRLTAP", "assay": "holdup assay", "design": "key: below the threshold = too weak to quantify, mostly under pKd 3.1 to 4", "settings": "plain residues with an end cap or a label only (N-terminal biotin on a linker: ado-ado)", "values": [
      {"binder": "B1", "pKd": "below the threshold"}
    ]},
    {"biological_target": "T8, PTPN13_1, Q12923", "T8 sequence (Q12923 1088-1188, limits assumed, looked up)": "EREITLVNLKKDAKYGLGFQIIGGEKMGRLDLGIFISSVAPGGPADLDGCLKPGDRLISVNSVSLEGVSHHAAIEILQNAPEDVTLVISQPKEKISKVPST", "assay": "holdup assay", "design": "key: below the threshold = too weak to quantify, mostly under pKd 3.1 to 4", "settings": "plain residues with an end cap or a label only (N-terminal biotin on a linker: ado-ado)", "values": [
      {"binder": "B1", "pKd": "below the threshold"}
    ]},
    {"biological_target": "T9, SYNJ2BP, P57105", "T9 sequence (P57105 8-110, limits assumed, looked up)": "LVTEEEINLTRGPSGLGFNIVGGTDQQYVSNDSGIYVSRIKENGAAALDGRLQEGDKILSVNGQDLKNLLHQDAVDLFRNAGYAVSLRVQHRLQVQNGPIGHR", "assay": "holdup assay", "design": "key: below the threshold = too weak to quantify, mostly under pKd 3.1 to 4", "settings": "plain residues with an end cap or a label only (N-terminal biotin on a linker: ado-ado)", "values": [
      {"binder": "B1", "pKd": "below the threshold"}
    ]},
    {"biological_target": "NOS1, P29475", "sequence (P29475 9-101)": "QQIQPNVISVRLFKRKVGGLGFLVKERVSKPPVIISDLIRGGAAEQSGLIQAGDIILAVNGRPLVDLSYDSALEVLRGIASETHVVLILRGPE", "assay": "holdup assay", "design": "key: below the threshold = too weak to quantify, mostly under pKd 3.1 to 4", "settings": "plain residues with an end cap or a label only (N-terminal biotin on a linker: ado-ado)", "values": [
      {"binder": "B1", "pKd": "below the threshold"}
    ]},
    {"biological_target": "T10, GRIP1_2, Q9Y3R0", "T10 sequence (Q9Y3R0 145-248, limits assumed, looked up)": "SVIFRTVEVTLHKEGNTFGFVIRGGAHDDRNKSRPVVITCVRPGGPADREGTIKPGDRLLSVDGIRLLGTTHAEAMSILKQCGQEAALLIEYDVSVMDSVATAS", "assay": "holdup assay", "design": "key: below the threshold = too weak to quantify, mostly under pKd 3.1 to 4", "settings": "plain residues with an end cap or a label only (N-terminal biotin on a linker: ado-ado)", "values": [
      {"binder": "B1", "pKd": "below the threshold"}
    ]},
    {"biological_target": "T11, DLG3_2, Q92796", "T11 sequence (Q92796 221-321, limits assumed, looked up)": "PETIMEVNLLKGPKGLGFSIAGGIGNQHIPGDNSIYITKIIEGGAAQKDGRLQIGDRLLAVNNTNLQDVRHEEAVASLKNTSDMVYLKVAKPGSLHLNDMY", "assay": "holdup assay", "design": "key: below the threshold = too weak to quantify, mostly under pKd 3.1 to 4", "settings": "plain residues with an end cap or a label only (N-terminal biotin on a linker: ado-ado)", "values": [
      {"binder": "B1", "pKd": 4.23}
    ]},
    {"biological_target": "Inadl_5, Q8NI35", "sequence (Q8NI35 673-780)": "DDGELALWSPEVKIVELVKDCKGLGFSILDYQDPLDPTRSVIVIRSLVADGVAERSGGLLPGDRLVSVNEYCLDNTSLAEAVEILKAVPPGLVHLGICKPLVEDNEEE", "assay": "holdup assay", "design": "key: below the threshold = too weak to quantify, mostly under pKd 3.1 to 4", "settings": "plain residues with an end cap or a label only (N-terminal biotin on a linker: ado-ado)", "values": [
      {"binder": "B1", "pKd": "below the threshold"}
    ]},
    {"biological_target": "HTRA1, Q92743", "sequence (Q92743 360-477)": "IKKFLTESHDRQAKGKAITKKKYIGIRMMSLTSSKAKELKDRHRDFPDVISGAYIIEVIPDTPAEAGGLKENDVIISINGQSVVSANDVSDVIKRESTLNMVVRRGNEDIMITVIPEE", "assay": "holdup assay", "design": "key: below the threshold = too weak to quantify, mostly under pKd 3.1 to 4", "settings": "plain residues with an end cap or a label only (N-terminal biotin on a linker: ado-ado)", "values": [
      {"binder": "B1", "pKd": "below the threshold"}
    ]},
    {"biological_target": "DLG4_2, P78352", "sequence (P78352 155-259)": "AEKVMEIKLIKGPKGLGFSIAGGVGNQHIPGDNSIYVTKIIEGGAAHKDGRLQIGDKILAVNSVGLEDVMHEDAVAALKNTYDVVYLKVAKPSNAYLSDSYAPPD", "assay": "holdup assay", "design": "key: below the threshold = too weak to quantify, mostly under pKd 3.1 to 4", "settings": "plain residues with an end cap or a label only (N-terminal biotin on a linker: ado-ado)", "values": [
      {"binder": "B1", "pKd": "below the threshold"}
    ]},
    {"biological_target": "T12, MPDZ_10, O75970", "T12 sequence (O75970 1624-1722, limits assumed, looked up)": "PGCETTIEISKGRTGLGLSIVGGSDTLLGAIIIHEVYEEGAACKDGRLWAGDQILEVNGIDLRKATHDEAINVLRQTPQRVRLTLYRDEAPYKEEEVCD", "assay": "holdup assay", "design": "key: below the threshold = too weak to quantify, mostly under pKd 3.1 to 4", "settings": "plain residues with an end cap or a label only (N-terminal biotin on a linker: ado-ado)", "values": [
      {"binder": "B1", "pKd": "below the threshold"}
    ]}
  ]
}
